The source of these data is US20120244164A1 (published 2012).

The target of test [1] is T1, recombinant human c-Met/Fc chimera (R&D systems) (human).
T1 construct: R&D Systems 358-MT/CF, expressed in NS0 cells; also called hc-Met/Fc; hu c-Met/Fc
In words: HGF-competition Alphascreen, EXP 1, second value.

In test [2] the target is T2, Human c-Met (human, UniProt P08581 25-1390). In words: cell-based or functional assay.
The target in test [3] is T1, recombinant human c-Met/Fc chimera (R&D …). In words: HGF-competition Alphascreen, EXP 1.
Test [4] has the same target. The test is described as follows: HGF-competition Alphascreen.
For test [5] the target is unchanged. In words: HGF-competition Alphascreen. This is another data set of the same source.
Test [6] has as its target T2, Human c-Met. In words: cell-based or functional assay. The source holds these as a separate data set.
Test [7] deals with T1, recombinant human c-Met/Fc chimera (R&D …). The test is described as follows: modified HGF-competition Alphascreen: 0.4 nM biotinylated HGF, 0.016 nM cMet/Fc.

T2 sequence (P08581 25-1390 limits assumed): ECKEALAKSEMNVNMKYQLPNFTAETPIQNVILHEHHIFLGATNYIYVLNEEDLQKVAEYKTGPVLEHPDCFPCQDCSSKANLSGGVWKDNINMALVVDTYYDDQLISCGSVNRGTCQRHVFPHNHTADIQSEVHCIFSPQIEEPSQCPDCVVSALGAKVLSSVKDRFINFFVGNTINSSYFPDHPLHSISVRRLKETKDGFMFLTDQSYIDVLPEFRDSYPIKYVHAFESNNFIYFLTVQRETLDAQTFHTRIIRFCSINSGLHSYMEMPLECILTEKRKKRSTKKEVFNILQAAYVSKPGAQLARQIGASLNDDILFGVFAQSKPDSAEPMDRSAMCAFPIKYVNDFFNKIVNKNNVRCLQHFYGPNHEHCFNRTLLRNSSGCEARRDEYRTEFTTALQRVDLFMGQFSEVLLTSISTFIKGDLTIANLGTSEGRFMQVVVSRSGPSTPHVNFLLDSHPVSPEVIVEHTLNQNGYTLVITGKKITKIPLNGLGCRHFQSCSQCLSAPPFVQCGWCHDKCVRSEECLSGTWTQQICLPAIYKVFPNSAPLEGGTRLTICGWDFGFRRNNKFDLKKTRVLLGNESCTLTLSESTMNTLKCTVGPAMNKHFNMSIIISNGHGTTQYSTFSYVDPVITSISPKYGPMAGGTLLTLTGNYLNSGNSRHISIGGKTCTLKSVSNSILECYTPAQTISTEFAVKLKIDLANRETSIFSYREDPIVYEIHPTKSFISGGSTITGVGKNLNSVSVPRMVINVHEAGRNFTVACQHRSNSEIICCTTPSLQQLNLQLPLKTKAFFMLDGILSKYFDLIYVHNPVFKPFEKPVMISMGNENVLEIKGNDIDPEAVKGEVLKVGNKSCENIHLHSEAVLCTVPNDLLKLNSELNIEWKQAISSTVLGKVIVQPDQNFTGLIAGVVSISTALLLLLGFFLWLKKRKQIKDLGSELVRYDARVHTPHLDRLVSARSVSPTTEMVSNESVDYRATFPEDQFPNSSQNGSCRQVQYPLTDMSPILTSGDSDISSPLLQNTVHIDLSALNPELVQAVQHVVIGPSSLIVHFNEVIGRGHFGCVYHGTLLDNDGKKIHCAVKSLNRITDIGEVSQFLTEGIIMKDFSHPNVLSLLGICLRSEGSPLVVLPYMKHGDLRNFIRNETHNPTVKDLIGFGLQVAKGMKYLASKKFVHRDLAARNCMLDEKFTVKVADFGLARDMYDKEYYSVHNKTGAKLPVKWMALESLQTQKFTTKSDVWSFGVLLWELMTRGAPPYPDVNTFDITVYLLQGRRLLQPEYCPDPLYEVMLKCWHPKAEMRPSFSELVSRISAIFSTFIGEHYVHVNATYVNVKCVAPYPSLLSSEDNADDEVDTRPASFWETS
T1 sequence (chain, as listed by the source mutant limits assumed): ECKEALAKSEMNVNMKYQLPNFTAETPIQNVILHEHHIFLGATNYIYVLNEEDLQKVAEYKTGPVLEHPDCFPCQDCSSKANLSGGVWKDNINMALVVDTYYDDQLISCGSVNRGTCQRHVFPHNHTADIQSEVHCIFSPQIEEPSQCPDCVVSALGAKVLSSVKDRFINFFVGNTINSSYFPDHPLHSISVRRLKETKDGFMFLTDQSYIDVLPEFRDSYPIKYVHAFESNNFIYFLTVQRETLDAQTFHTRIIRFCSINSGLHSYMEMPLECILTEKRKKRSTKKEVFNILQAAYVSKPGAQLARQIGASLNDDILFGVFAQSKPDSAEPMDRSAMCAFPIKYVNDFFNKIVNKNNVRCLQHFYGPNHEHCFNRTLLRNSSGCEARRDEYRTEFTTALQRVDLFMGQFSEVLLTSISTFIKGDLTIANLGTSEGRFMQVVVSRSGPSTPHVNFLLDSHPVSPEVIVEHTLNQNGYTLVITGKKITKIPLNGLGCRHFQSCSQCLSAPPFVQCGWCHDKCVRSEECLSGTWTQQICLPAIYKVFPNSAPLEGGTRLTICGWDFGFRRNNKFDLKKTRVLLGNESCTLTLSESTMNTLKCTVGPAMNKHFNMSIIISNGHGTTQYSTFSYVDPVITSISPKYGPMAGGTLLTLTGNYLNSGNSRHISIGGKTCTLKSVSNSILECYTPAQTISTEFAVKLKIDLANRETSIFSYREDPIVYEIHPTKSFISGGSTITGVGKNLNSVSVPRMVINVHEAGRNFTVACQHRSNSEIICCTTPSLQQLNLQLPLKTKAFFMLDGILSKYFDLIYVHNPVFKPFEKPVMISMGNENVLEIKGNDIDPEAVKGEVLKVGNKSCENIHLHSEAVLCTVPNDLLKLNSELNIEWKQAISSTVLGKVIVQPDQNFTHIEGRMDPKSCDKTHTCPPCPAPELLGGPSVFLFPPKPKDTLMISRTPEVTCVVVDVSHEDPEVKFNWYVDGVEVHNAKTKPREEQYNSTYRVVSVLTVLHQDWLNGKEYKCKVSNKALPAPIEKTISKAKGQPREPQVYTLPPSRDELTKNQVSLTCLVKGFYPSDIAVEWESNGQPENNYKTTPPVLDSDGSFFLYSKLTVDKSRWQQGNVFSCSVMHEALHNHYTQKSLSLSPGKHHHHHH

B1: A00790068 (VHH)
VHH: EVQLVESGGGLVQPGGSLRLSCAASGFILDYYAIGWFRQAPGKEREGVLCIDASDDITYYADSVKGRFTISRDNSKNTVYLQMNSLRPEDTGVYYCATPIGLSSSCLLEYDYDYWGQGTLVTVSS
notes: the entry as printed already holds the 3xFLAG-His6 tag; also called 04E09 (A74S, K83R, Q108L)
Consider B1, for which the IC50 is 0.072 nM in test [1] and 0.104 nM in test [3]. Also, the “IC50, c-Met phosphorylation, EXP 1” value in the test with Human c-Met [2] is 1.96 nM.

B2: A007900744 (VHH)
VHH: VQLVESGGGLVQPGGSLRLSCAASGFTFDDYAIGWFRQAPGEEREGVSSISSTYGLTYYADSVKGRFTISRSNSKNTVYLQMNSLKPEDTAVYYCAATPIERLGLDAYEYDYWGQGTLVTVSS
notes: 33H10 variant; the entry holds the 3xFLAG-His6 tag
With B2, the 50% inhibitory concentration (IC50) in test [4] amounted to 11 nM.

B3: A007900184 (33H10-3xFLAG-His6) (VHH)
VHH: EVQLVESGGGLVQAGGSLRLSCAASGFTFDDYAIGWFRQAPGEEREGVSSISSTYGLTYYADSVKGRFTISSSNAKNTVYLQMNNLKPEDTAVYYCAATPIERLGLDAYEYDYWGQGTLVTVSS
notes: the entry holds the tag; also called A007900184 (wt)
As for B3, the IC50 is 0.61 nM in test [5] and 0.78 nM in test [4]. Besides, in the test with Human c-Met [6], the “IC50, cell-based cMet phosphorylation assay” value worked out at 79 nM.

B4: A007900752 (VHH)
VHH: EVQLVESGGGLVQPGGSLRLSCAASGFTFDDYAIGWFRQAPGKEREGVSSISSTYGLTYYADSVKGRFTISRSNSKNTVYLQMNSLKPEDTAVYYCAATPIERLGLDAYEYDYWGQGTLVTVSS
notes: as for B2
Turning to B4, the half-maximal inhibitory concentration (IC50) in test [4] is 31 nM.

B5: A007901251 (VHH)
VHH: EVQLVESGGGLVQPGGSLRLSCAASGFTFDDYAIGWFRQAPGKERLGVSSISSTYGLTYYADSVKGRFTISSDNSKNTVYLQMNSLRPEDTAVYYCAATPIGLIGLDAYEYDYWGQGTLVTVSS
notes: 33H10 variant, 3xFLAG-His6 tagged; the entry holds the tag
On to B5, for which the IC50 in test [5] stood at 0.068 nM. Further, the “IC50, cell-based cMet phosphorylation assay” value with Human c-Met [6] was 4.98 nM.

B6: A007901246 (VHH)
VHH: EVQLVESGGGLVQPGGSLRLSCAASGFAFDDYAIGWFRQAPGEEREGVSSISSTYGLTYYADSVKGRFTISSDNSKNTVYLQMNSLRPEDTAVYYCAATPIGLIGLDAYEYDYWGQGTLVTVSS
notes: 33H10 variant, 3xFLAG-His6 tagged; the entry holds the tag; also called monovalent form of A007901256
As for B6, the IC50 in test [7] worked out at 0.048 nM. Moreover, the IC50 in test [5] was determined as 0.089 nM. In addition, in the test with Human c-Met [6], the “IC50, cell-based cMet phosphorylation assay” value worked out at 3.44 nM and the “IC50, cell-based proliferation assay, plate 1” value (“IC50 … plate 1” for short) came out at 1.88 nM.

B7: A007900751 (VHH)
VHH: EVQLVESGGGLVQPGGSLRLSCAASGFTFDDYAIGWFRQAPGKEREGVSSISSTYGLTYYADSVKGRFTISRDNSKNTVYLQMNNLKPEDTAVYYCAATPIERLGLDAYEYDYWGQGTLVTVSS
notes: as for B2
In the case of B7, the IC50 in test [4] was found to be 100 nM.

B8: A007900748 (VHH)
VHH: EVQLVESGGGLVQPGGSLRLSCAASGFTFDDYAIGWFRQAPGKEREGVSSISSTYGLTYYADSVKGRFTISSDNSKNTVYLQMNNLKPEDTAVYYCAATPIERLGLDAYEYDYWGQGTLVTVSS
notes: as for B2
Regarding B8, the IC50 in test [4] is 3.5 nM.

B9: A007901249 (VHH)
VHH: EVQLVESGGGLVQPGGSLRLSCAASGFTFDDYAIGWFRQAPGEERLGVSSISSTYGLTYYADSVKGRFTISSDNSKNTVYLQMNSLRPEDTAVYYCAATPIGLIGLDAYEYDYWGQGTLVTVSS
notes: 33H10 variant, 3xFLAG-His6 tagged; the entry holds the tag; also called monovalent form of A007901259
B9: the concentration for half-maximal inhibition (IC50) in test [7] was 0.043 nM; in test [5], 0.08 nM. The “IC50, cell-based cMet phosphorylation assay” value in the test with Human c-Met [6] came to 2.81 nM. In addition, the “IC50, cell-based proliferation assay, plate 2” value in the test with Human c-Met [6] stood at 1.93 nM.

B10: A007901250 (VHH)
VHH: EVQLVESGGGLVQPGGSLRLSCAASGFAFDDYAIGWFRQAPGEERLGVSSISSTYGLTYYADSVKGRFTISSDNSKNTVYLQMNSLRPEDTAVYYCAATPIGLIGLDAYEYDYWGQGTLVTVSS
notes: 33H10 variant, 3xFLAG-His6 tagged; the entry holds the tag; also called monovalent form of A007901260
Turning to B10, the IC50 in test [7] is 0.035 nM. The IC50 in test [5] is 0.081 nM. In the test with Human c-Met [6], the “IC50, cell-based cMet phosphorylation assay” value was determined as 2.34 nM; the “IC50 … plate 1” value was 2.29 nM; the “IC50, cell-based proliferation assay, plate 2” value was 1.32 nM.

B11: A007900745 (VHH)
VHH: EVQLVESGGGLVQPGGSLRLSCAASGFTFDDYAIGWFRQAPGEEREGVSSISSTYGLTYYADSVKGRFTISRDNSKNTVYLQMNSLKPEDTAVYYCAATPIERLGLDAYEYDYWGQGTLVTVSS
notes: as for B2
For the molecule B11, in test [4], the concentration for half-maximal inhibition (IC50) was 18 nM.

B12: A007900741 (VHH)
VHH: EVQLVESGGGLVQPGGSLRLSCAASGFTFDDYAIGWFRQAPGEEREGVSSISSTYGLTYYADSVKGRFTISSDNSKNTVYLQMNSLKPEDTAVYYCAATPIERLGLDAYEYDYWGQGTLVTVSS
notes: as for B2
Take B12: in test [4], the concentration for half-maximal inhibition (IC50) turned out to be 0.85 nM.

B13: A007900749 (VHH)
VHH: EVQLVESGGGLVQPGGSLRLSCAASGFTFDDYAIGWFRQAPGKEREGVSSISSTYGLTYYADSVKGRFTISSDNSKNTVYLQMNSLKPEDTAVYYCAATPIERLGLDAYEYDYWGQGTLVTVSS
notes: as for B2
As for B13, the IC50 in test [4] is 3.4 nM.

B14: A007901252 (VHH)
VHH: EVQLVESGGGLVQPGGSLRLSCAASGFAFDDYAIGWFRQAPGKERLGVSSISSTYGLTYYADSVKGRFTISSDNSKNTVYLQMNSLRPEDTAVYYCAATPIGLIGLDAYEYDYWGQGTLVTVSS
notes: as for B5
As for B14, the half-inhibitory concentration (IC50) in test [5] is 0.12 nM. For the same molecule, in the test with Human c-Met [6], the “IC50, cell-based cMet phosphorylation assay” value was 4.16 nM.

B15: A007900747 (VHH)
VHH: EVQLVESGGGLVQPGGSLRLSCAASGFTFDDYAIGWFRQAPGKEREGVSSISSTYGLTYYADSVKGRFTISSSNSKNTVYLQMNSLKPEDTAVYYCAATPIERLGLDAYEYDYWGQGTLVTVSS
notes: as for B2
In the case of B15, the IC50 in test [4] stood at 2.5 nM.

B16: A007901253 (VHH)
VHH: EVQLVESGGGLVQPGGSLRLSCAASGFTFDDYAIGWFRQAPGEEREGVSSISSTYGLTYYADPVKGRFTISSDNSKNTVYLQMNSLRPEDTAVYYCAATPIGLIGLDAYEYDYWGQGTLVTVSS
notes: as for B5
B16: the IC50 in test [5] was determined as 0.071 nM. In addition, the “IC50, cell-based cMet phosphorylation assay” value in the test with Human c-Met [6] worked out at 4.84 nM.

B17: A007900738 (VHH)
VHH: EVQLVESGGGLVQPGGSLRLSCAASGFTFDDYAIGWFRQAPGEEREGVSSISSTYGLTYYADSVKGRFTISSSNSKNTVYLQMNNLKPEDTAVYYCAATPIERLGLDAYEYDYWGQGTLVTVSS
notes: as for B2
As to B17, in test [4], the IC50 is 0.69 nM.

B18: A007900750 (VHH)
VHH: EVQLVESGGGLVQPGGSLRLSCAASGFTFDDYAIGWFRQAPGKEREGVSSISSTYGLTYYADSVKGRFTISRSNSKNTVYLQMNNLKPEDTAVYYCAATPIERLGLDAYEYDYWGQGTLVTVSS
notes: as for B2
In the case of B18, the IC50 in test [4] worked out at 42 nM.

B19: A007900742 (VHH)
VHH: EVQLVESGGGLVQPGGSLRLSCAASGFTFDDYAIGWFRQAPGEEREGVSSISSTYGLTYYADSVKGRFTISRSNSKNTVYLQMNNLKPEDTAVYYCAATPIERLGLDAYEYDYWGQGTLVTVSS
notes: as for B2
For the molecule B19, the IC50 in test [4] stood at 8.3 nM.

B20: A007901248 (VHH)
VHH: EVQLVESGGGLVQPGGSLRLSCAASGFAFDDYAIGWFRQAPGKEREGVSSISSTYGLTYYADSVKGRFTISSDNSKNTVYLQMNSLRPEDTAVYYCAATPIGLIGLDAYEYDYWGQGTLVTVSS
notes: as for B5
With B20, the IC50 in test [5] is 0.17 nM. In the test with Human c-Met [6], the “IC50, cell-based cMet phosphorylation assay” value was found to be 11.5 nM.

B21: A007901247 (VHH)
VHH: EVQLVESGGGLVQPGGSLRLSCAASGFTFDDYAIGWFRQAPGKEREGVSSISSTYGLTYYADSVKGRFTISSDNSKNTVYLQMNSLRPEDTAVYYCAATPIGLIGLDAYEYDYWGQGTLVTVSS
notes: as for B5
Turning to B21, the IC50 in test [5] was 0.27 nM. For the same molecule, in the test with Human c-Met [6], the “IC50, cell-based cMet phosphorylation assay” value turned out to be 12.8 nM.

B22: A007900753 (VHH)
VHH: EVQLVESGGGLVQPGGSLRLSCAASGFTFDDYAIGWFRQAPGKEREGVSSISSTYGLTYYADSVKGRFTISRDNSKNTVYLQMNSLKPEDTAVYYCAATPIERLGLDAYEYDYWGQGTLVTVSS
notes: as for B2
For the molecule B22, the IC50 in test [4] was found to be 100 nM.

B23: A007900743 (VHH)
VHH: EVQLVESGGGLVQPGGSLRLSCAASGFTFDDYAIGWFRQAPGEEREGVSSISSTYGLTYYADSVKGRFTISRDNSKNTVYLQMNNLKPEDTAVYYCAATPIERLGLDAYEYDYWGQGTLVTVSS
notes: as for B2
Turning to B23, the IC50 in test [4] was found to be 26 nM.

B24: A007900739 (VHH)
VHH: EVQLVESGGGLVQPGGSLRLSCAASGFTFDDYAIGWFRQAPGEEREGVSSISSTYGLTYYADSVKGRFTISSSNSKNTVYLQMNSLKPEDTAVYYCAATPIERLGLDAYEYDYWGQGTLVTVSS
notes: as for B2
In the case of B24, the IC50 in test [4] turned out to be 0.58 nM.

B25: A007900746 (VHH)
VHH: EVQLVESGGGLVQPGGSLRLSCAASGFTFDDYAIGWFRQAPGKEREGVSSISSTYGLTYYADSVKGRFTISSSNSKNTVYLQMNNLKPEDTAVYYCAATPIERLGLDAYEYDYWGQGTLVTVSS
notes: as for B2
For B25, in test [4], the IC50 came out at 2.5 nM.

B26: A007900740 (VHH)
VHH: EVQLVESGGGLVQPGGSLRLSCAASGFTFDDYAIGWFRQAPGEEREGVSSISSTYGLTYYADSVKGRFTISSDNSKNTVYLQMNNLKPEDTAVYYCAATPIERLGLDAYEYDYWGQGTLVTVSS
notes: as for B2
Consider B26, for which the IC50 in test [4] is 1.1 nM.

B27: A007901245 (VHH)
VHH: EVQLVESGGGLVQPGGSLRLSCAASGFTFDDYAIGWFRQAPGEEREGVSSISSTYGLTYYADSVKGRFTISSDNSKNTVYLQMNSLRPEDTAVYYCAATPIGLIGLDAYEYDYWGQGTLVTVSS
notes: 33H10 variant, 3xFLAG-His6 tagged; the entry holds the tag; also called monovalent form of A007901255
B27: the IC50 in test [7] was 0.091 nM. Moreover, the IC50 in test [5] is 0.092 nM. Besides, in the test with Human c-Met [6], the “IC50, cell-based cMet phosphorylation assay” value stood at 5.41 nM and the “IC50 … plate 1” value worked out at 3.69 nM.
